The results in this text go back to patent US20250346682A1 (TENEOBIO, published 2025).

The target of this experiment is T1, human CD20 (B-lymphocyte antigen CD20) (human, UniProt P11836 1-297).
T1 construct: whole, on cells; also called MS4A1
T1 sequence (looked up): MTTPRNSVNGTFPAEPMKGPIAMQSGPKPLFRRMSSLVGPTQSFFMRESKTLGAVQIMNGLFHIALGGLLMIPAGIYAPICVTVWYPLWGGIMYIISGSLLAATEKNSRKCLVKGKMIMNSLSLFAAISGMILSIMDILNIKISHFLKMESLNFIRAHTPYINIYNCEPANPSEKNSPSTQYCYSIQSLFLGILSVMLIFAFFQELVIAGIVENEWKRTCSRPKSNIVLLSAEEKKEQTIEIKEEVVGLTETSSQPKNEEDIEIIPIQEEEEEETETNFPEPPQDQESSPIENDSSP
The experiment is described as follows: ELISA on CD20 protein and cell-binding assays.

B1: anti-CD20 heavy chain-only antibody (UniAb) Clone ID 367912 (antibody, V domains shown)
VH: EVQLVESGGGVVRPGGSLRLSCAASGFTFDDYGMSWVRQAPGKGLEWVSSINWNGGSKGYADSVKGRFTISRDNAKNSLYLQMNSLRVEDTALYQCARERGYRIGHDSFDIWGQGTLVTVSS
notes: Heavy chain-only antibody (UniAb) from UniRat, called human IgG, with no light chain; also called VH912
Take B1: the binding result is “binds”.

B2: anti-CD20 heavy chain-only antibody (UniAb) Clone ID 367936 (antibody, V domains shown)
VH: QVQLQESGPGLVKPSETLSLTCTVSGGSVSSGNYYWNWIRQPPGKGLEWIGYIYSSGSTKYNPSLKSRVTILVDTSKNQFSLKLSSVTAADTAVYYCARSRLNGDGLFDDRGQGTLVTVSS
notes: Heavy chain-only antibody (UniAb) from UniRat, called human IgG, with no light chain; also called VH936
For the molecule B2, the binding result is on record as “binds”.
